According to article PMC11382572, “Structural and kinetic insights into the stereospecific oxidation of R-2,3-dihydroxypropanesulfonate by DHPS-3-dehydrogenase from Cupriavidus pinatubonensis” (Chemical Science, 2024):

What was measured:
[1] = tested on: O=S(=O)(O)C[C@H](O)CO; assay: purified protein; format: biochemical, Cupriavidus pinatubonensis; conditions: Zn2+
[2] = tested on: O=S(=O)(O)C[C@H](O)CO; assay: Michaelis-Menten kinetics (apparent KM); format: biochemical, Cupriavidus pinatubonensis; conditions: Zn2+, NAD+

Row | Substance | Km [1] [µM] | kcat/Km ([1]; NADH active site, sulfonate and secondary hydroxyl groups participate in octahedral zinc coordination, occupancy […]) [M⁻¹ s⁻¹] | Km [2] [µM] | kcat/Km [2] [M⁻¹ s⁻¹]
1 | DHPS-3-dehydrogenase (CpHpsN) (Cupriavidus pinatubonensis JMP134; H319A) | 1200 ± 300 | 3.1 |  | 
2 | DHPS-3-dehydrogenase (CpHpsN) (Cupriavidus pinatubonensis JMP134; E318A) |  |  | 2800 ± 300 | 1.8
